# Conditions: Escherichia coli (strain K12); pH 5.5; 25 °C; GdnHCl; Fluorescence; Sodium acetate 20 mM; NaCl 0.1 M; reversible: yes; whole UniProt chain shown
protein,measurement,value
"Ribonuclease HI wild type, P0A7Y4 (protein) MLKQVEIFTDGSCLGNPGPGGYGAILRYRGREKTFSAGYTRTTNNRMELMAAIVALEALKEHCEVILSTDSQYVRQGITQWIHNWKKRGWKTADKKPVKNVDLWQRLDAALGQHQIKWEWVKGHAGHPENERCDELARAAAMNPTLEDTGYQVEV",denaturant m value,5.17 kcal/mol/M
same,denaturant midpoint (higher = more stable),1.79 M
same,unfolding free energy,9.26 kcal/mol

# Source: FireProtDB (doi:10.1111/j.1432-1033.1991.tb16033.x)
